# Measured values from patent US5576294A, “Human Kunitz-type protease inhibitor variant” (Novo Nordisk A/S, priority 1992, dated 1996).
# Like-named read-outs stand apart in the source and are kept apart here.
# Legend:
# [1] = target: Porcine trypsin (porcine) (UniProt P00761)
# [2] = target: Factor Xa (as used in Example 3) (Homo sapiens (Human)) (UniProt P00742); assay: proteinase inhibition: enzyme incubated 30 min with KFN 1593, residual activity on peptidyl nitroanilide substrate at 405 nm
# [3] = target: Porcine trypsin (porcine) (UniProt P00761); assay: as above
# [4] = target: Human neutrophil elastase (human) (UniProt P08246)
# [5] = target: bovine chymotrypsin (TLCK treated) (bovine) (UniProt P00766)
# [6] = target: bovine chymotrypsin (TLCK treated) (bovine) (UniProt P00766); assay: apparent Ki; 2.5 nM chymotrypsin, substrate S2586, 30 min preincubation, residual activity at 405 nm
# [7] = target: Human neutrophil elastase (human) (UniProt P08246); assay: apparent Ki; 4 nM neutrophil elastase, substrate M4765, 30 min preincubation, residual activity at 405 nm
# Human plasmin [8] = target: T1, Human plasmin (Homo sapiens, UniProt P00747)
# [9] = target: Porcine trypsin (porcine) (UniProt P00761); remark: listed apart in the source
# [10] = target: bovine chymotrypsin (TLCK treated) (bovine) (UniProt P00766); remark: listed apart in the source
# [11] = target: glandular kallikrein (as used in Example 8) (Sus scrofa (Pig)) (UniProt P00752)
# plasma kallikrein [12] = target: T2, plasma kallikrein (Homo sapiens, UniProt P03952)
# Human plasmin [13] = target: T1, Human plasmin; assay: apparent Ki; 4 nM plasmin, substrate S2251, 30 min preincubation, residual activity at 405 nm
# [14] = target: Porcine trypsin (porcine) (UniProt P00761); assay: apparent Ki; 10 nM trypsin, substrate S2251, 30 min preincubation, residual activity at 405 nm
# plasma kallikrein [15] = target: T2, plasma kallikrein; assay: apparent Ki; 3 nM plasma kallikrein, substrate S2302, 30 min preincubation, residual activity at 405 nm
# [16] = target: glandular kallikrein (as used in Example 8) (Sus scrofa (Pig)) (UniProt P00752); assay: apparent Ki; 1 U/ml glandular kallikrein, substrate S2266, 30 min preincubation, residual activity at 405 nm
# Porcine trypsin = target: T3, Porcine trypsin (Sus scrofa, UniProt P00761); assay: Inhibition of serine proteinases: trypsin, peptidyl nitroanilide substrate, residual activity at 405 nm; assay type: biochemical; conditions: enzyme 10 nM, read-out: Apparent Ki (nM), Trypsin
# T3 construct: purchased Novo Nordisk (Bagsvaerd, Denmark; the applicant itself)
# T3 sequence (P00761 9-231): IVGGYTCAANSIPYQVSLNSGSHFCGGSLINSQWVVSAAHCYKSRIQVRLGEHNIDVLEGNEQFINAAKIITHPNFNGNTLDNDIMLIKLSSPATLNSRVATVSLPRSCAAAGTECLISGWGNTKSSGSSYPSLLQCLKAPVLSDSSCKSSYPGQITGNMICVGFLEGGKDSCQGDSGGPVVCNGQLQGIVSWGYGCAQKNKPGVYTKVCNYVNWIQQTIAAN
# Method: (§1) KFN 1593 was purified from yeast culture medium as described in example 1. The concentration of KFN 1593 was determined using 1% E280 nm =8.3 and Mw =6500. Porcine trypsin was from Novo Nordisk (Bagsv.ae butted.rd, Denmark), bovine chymotrypsin (TLCK treated) and porcine pancreatic kallikrein was from Sigma Chemical Co (St. Louis, Mo., U.S.A.), human plasmin and human plasma kallikrein was from Kabi (Stockholm, Sweden).
# (§2) Human neutrophil elastase and cathepsin G was purified from extracts of PMNs according to the method described by Baugh and Travis (Biochemistry 15 (1976) 836-843). Peptidyl nitroanilide substrates, S2251, S2586, S2266, S2302 were from Kabi (Stockholm, Sweden). M4765 and S7388 was from Sigma Chemical Co (St. Louis, Mo., U.S.A.) and FXa-1 was from NycoMed (Oslo, Norway).
# (§3) Serine proteinases were incubated with various concentrations of KFN 1593 for 30 min. Substrate was then added and residual proteinase activity was measured at 405 nm.
# (§4) The three TFPI (domain II) variants were purified from yeast culture medium. Their concentrations were determined from the absorbance at 214 nm using BPTI as a standard. The final concentration was determined by titration with trypsin. Porcine trypsin and human recombinant proteins, factor VIIa, activated protein C (ACP), and tPA were obtained from Novo Nordisk A/S (Bagsvaerd, Denmark), so was human thrombin. Bovine chymotrypsin and glandular kallikrein were obtained from Sigma Chemical Co. (St. Louis, Mo., U.S.A.). Truncated human recombinant tissue factor was obtained from Corvas (San Diego, Calif., U.S.A.). Human neutrophil cathepsin G was purified from extracts of PMNs according to the method described by Baugh and Travis (Biochemistry 15 (1976) 836-843). Human plasmin was from Kabi (Stockholm, Sweden), uPA was from Serono (Milan, Italy), human factor Xa was a gift from Dr. W. Kisiel (Albuquerque, N.M., U.S.A.), and human plasma kallikrein was a gift from Dr. I Schousboe (Copenhagen, Denmark).
# (§5) Peptidyl nitroanilide substrates, S2251, S2302, S2266, S2586, S2288, S2444, S2366, and S2238 were from Kabi (Stockholm, Sweden). S7388 and M4765 were from Sigma Chemical Co. (St. Louis, Mo., U.S.A.) and FXa-1 was from Nycomed (Oslo, Norway).
# (§6) Serine proteinases were incubated with various concentrations of Kunitz Domain variant for 30 min. Substrate (0.6 mM) was then added and residual proteinase activity was measured at 405 nm.
# (§7) The four variants were purified from yeast culture medium. Their concentrations were determined from the absorbance at 214 nm using BTPI as a standard. Porcine trypsin was obtained from Novo Nordisk A/S (Bagsvaerd, Denmark, bovine chymotrypsin (TLCK treated) was obtained from Sigma Chemical Co. (St. Louis, Mo., U.S.A.). Truncated human recombinant tissue factor was obtained from Corvas (San Diego, Calif., U.S.A.). Human plasmin was from Kabi (Stockholm, Sweden). Human neutrophil cathepsin G and elastase were purified from extracts of PMNs according to the method described by Baugh and Travis (Biochemistry 15 (1976) 836-843).
# (§8) Peptidyl nitroanilide substrates, S2251, S2586 were from Kabi (Stockholm, Sweden). S7388 and M4765 were from Sigma Chemical Co. (St. Louis, Mo., U.S.A.).
# (§9) Serine proteinases were incubated with various concentrations of the variants for 30 min. Substrate ([…]) was then added and residual proteinase activity was measured at 405 nm.
# [17] = target: T4, Human neutrophil elastase (Homo sapiens, UniProt P08246); assay: Inhibition of serine proteinases: neutrophil elastase; assay type: biochemical; conditions: Example 9; for Ki: enzyme 4 nM, substrate M4765, 30 min incubation, read-out: Apparent Ki (nM), N. elastase
# T4 construct: Human neutrophil elastase and cathepsin G was purified from extracts of PMNs; from tissue; host or cells: extracts of human polymorphonuclear leukocytes (PMNs), method of Baugh and Travis
# T4 sequence (P08246 30-267): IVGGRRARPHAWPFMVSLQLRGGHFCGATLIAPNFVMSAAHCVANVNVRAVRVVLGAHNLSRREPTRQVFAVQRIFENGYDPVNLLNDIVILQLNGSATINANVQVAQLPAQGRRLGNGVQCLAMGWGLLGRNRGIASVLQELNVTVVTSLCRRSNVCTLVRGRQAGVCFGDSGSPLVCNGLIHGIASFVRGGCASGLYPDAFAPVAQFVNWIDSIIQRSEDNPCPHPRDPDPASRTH
# Method: as §1, §2
# Serine proteinases were incubated with various concentrations of KFN 1593 for 30 min. Substrate was then added and residual proteinase activity was measured at 405 nm. […]
# as §7, §8, §9
# [18] = target: T5, Human neutrophil cathepsin G (Homo sapiens, UniProt P08311); assay: Inhibition of serine proteinases: neutrophil cathepsin G; assay type: biochemical; conditions: Example 9; enzyme 50 nM, substrate S7388, 30 min incubation; read-out: Apparent Ki (nM), N. cathepsin G
# T5 construct: Human neutrophil cathepsin G was purified from extracts of PMNs; from tissue; host or cells: extracts of human polymorphonuclear leukocytes (PMNs), method of Baugh and Travis
# T5 sequence (P08311 21-255): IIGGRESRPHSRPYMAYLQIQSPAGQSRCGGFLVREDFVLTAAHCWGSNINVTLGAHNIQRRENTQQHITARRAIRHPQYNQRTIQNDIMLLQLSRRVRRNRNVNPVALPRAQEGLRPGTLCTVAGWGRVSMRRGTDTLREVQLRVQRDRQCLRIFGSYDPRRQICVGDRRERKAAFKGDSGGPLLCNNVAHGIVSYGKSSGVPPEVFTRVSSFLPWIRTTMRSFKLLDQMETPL
# Method: as §1, §2, §3, §4, §5, §6, §7, §8, §9
# Bovine chymotrypsin = target: T6, Bovine chymotrypsin (Bos taurus, UniProt P00766); assay: Inhibition of serine proteinases: chymotrypsin; assay type: biochemical; conditions: enzyme 2.5 nM, substrate S2586 0.6 mM, 30 min incubation
# T6 construct: purchased Sigma Chemical Co. (St. Louis, Mo., U.S.A.)
# Method: as §4, §5, §6, §7, §8, §9
# Human plasmin [19] = target: T1, Human plasmin; assay: Inhibition of serine proteinases: plasmin; assay type: biochemical; set-up: human plasmin and human plasma kallikrein was from Kabi (Stockholm, Sweden); purchased Kabi (Stockholm, Sweden); conditions: enzyme 4 nM, 30 min incubation, read-out: Apparent Ki (nM), Plasmin
# Method: as §1, §2, §3, §4, §5, §6, §7, §8, §9
# Target sequence in this assay (P00747 581-810 limits assumed): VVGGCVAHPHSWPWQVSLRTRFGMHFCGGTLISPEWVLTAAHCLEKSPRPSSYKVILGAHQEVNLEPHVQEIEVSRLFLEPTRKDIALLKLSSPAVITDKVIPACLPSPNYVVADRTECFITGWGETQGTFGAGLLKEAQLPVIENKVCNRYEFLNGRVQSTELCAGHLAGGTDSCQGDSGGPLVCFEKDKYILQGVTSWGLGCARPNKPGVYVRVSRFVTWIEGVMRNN
# Target sequence in this assay (P00747 97-580 limits assumed): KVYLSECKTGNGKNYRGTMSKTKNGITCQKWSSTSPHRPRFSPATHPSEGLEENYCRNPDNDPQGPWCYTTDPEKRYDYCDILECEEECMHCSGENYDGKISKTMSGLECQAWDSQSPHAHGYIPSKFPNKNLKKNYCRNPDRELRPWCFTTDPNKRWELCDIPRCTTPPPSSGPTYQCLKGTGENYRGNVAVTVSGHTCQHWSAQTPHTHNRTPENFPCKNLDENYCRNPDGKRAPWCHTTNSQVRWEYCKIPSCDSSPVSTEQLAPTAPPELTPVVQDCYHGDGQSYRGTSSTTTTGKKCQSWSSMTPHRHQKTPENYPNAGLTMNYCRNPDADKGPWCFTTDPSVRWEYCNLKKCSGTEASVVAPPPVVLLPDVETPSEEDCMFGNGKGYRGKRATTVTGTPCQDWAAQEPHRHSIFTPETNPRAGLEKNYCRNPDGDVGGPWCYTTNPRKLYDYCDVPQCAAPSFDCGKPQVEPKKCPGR
# granulocyte elastase = target: T7, granulocyte elastase (Homo sapiens, UniProt P08246); conditions: Wenzel and Tschesche 1981; cited from earlier work
# T7 sequence (P08246 30-267): T4 sequence (P08246 30-267)
# plasma kallikrein [20] = target: T2, plasma kallikrein; assay: Inhibition of serine proteinases: plasma kallikrein; assay type: biochemical; conditions: Example 8; enzyme 3 nM, substrate S2302 0.6 mM, 30 min incubation; read-out: Apparent Ki (nM), Pl. kallikrein
# Method: as §1, §2, §3, §4, §5, §6
# Target sequence in this assay (P03952 391-638 limits assumed): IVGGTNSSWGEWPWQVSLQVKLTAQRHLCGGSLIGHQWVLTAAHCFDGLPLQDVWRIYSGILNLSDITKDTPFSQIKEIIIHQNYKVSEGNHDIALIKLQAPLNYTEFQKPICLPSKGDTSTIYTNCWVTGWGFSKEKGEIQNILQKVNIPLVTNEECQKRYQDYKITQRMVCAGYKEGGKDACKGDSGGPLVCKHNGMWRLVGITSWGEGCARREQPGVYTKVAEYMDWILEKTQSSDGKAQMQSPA
# Target sequence in this assay (P03952 20-390 limits assumed): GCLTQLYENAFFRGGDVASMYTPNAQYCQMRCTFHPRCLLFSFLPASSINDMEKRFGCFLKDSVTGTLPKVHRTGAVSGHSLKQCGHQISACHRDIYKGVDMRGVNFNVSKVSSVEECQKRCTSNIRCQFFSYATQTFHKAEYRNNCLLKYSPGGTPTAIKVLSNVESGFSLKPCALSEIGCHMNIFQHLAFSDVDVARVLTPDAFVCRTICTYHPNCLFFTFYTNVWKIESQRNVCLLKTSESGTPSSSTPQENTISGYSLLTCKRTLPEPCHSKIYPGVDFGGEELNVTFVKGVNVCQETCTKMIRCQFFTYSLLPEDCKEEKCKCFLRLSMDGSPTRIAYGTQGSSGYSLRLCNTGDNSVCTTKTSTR
# [21] = target: T8, glandular kallikrein (porcine pancreatic kallikrein) (Sus scrofa, UniProt P00752); assay: Inhibition of serine proteinases: glandular kallikrein; assay type: biochemical; conditions: Example 8; enzyme 1 U/ml, substrate S2266 0.6 mM, 30 min incubation; read-out: Apparent Ki (nM), Gl. kallikrein
# T8 construct: purchased Sigma Chemical Co (St. Louis, Mo., U.S.A.)
# T8 sequence (P00752 8-246): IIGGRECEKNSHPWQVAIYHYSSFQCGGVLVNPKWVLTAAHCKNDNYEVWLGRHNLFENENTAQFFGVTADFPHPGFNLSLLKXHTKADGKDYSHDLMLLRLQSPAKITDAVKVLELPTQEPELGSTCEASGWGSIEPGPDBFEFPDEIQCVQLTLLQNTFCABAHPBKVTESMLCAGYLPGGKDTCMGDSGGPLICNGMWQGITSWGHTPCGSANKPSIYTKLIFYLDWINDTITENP
# Method: as §1, §2, §3, §4, §5, §6
# [22] = Example 9, substrate S2251, 30 min incubation
# [23] = Example 9, read-out: Apparent Ki (nM), Chymotrypsin
substance,measurement,setting,value
"TFPI-2, the second Kunitz domain of tissue factor pathway inhibitor, from yeast strain KFN-1593 (from UniProt P10646)",residual proteinase activity at 405 nm,[1],5 nM
same,Ki,[2],150 nM
same,Ki,[3],5 nM
[R15L]-TFPI-2 from yeast strain KFN-1928 (from UniProt P10646),residual proteinase activity at 405 nm (apparent Ki),[4],2.2 nM
same,apparent Ki,[5],< 5 nM
same,Ki,[6],< 5 nM
same,Ki,[7],2.2 nM
"[R15K, G16A, Y17R, T19I]-TFPI-2 from yeast strain KFN-1811 (from UniProt P10646)",apparent Ki,Human plasmin [8],3 nM
same,apparent Ki,[9],< 1 nM
same,apparent Ki,[10],10 nM
same,apparent Ki,[11],> 100 nM
same,apparent Ki,plasma kallikrein [12],> 100 nM
same,Ki,Human plasmin [13],3 nM
same,Ki,[14],< 1 nM
same,Ki,[6],10 nM
same,Ki,plasma kallikrein [15],> 100 nM
same,Ki,[16],> 100 nM
[R15V]-TFPI-2 from yeast strain KFN-1898 (from UniProt P10646),apparent Ki,[4],0.35 nM
same,Ki,[7],0.35 nM
"[R15L, G16A]-TFPI-2 [KFN 1893]",Ki,Porcine trypsin; [22],> 1000 nM
same,neutrophil elastase inhibition (in words),[17],strong inhibitors
same,Ki,[17],0.23 nM
same,Ki,[18],> 1000 nM
same,Ki,Bovine chymotrypsin; [23],< 5 nM
same,Ki,Human plasmin [19]; Example 9,> 1000 nM
"aprotinin (1-58, Ala15)",effect on granulocyte elastase (in words),granulocyte elastase,weak effect
"[R15K, G16A, Y17R, T19I]-TFPI-2 [KFN 1811]",Ki,"Porcine trypsin; Example 8, substrate S2251 0.6 mM, 30 min incubation",< 1 nM
same,Ki,plasma kallikrein [20],> 100 nM
same,Ki,[21],> 100 nM
same,Ki,"Bovine chymotrypsin; Example 8, read-out: Apparent Ki (nM), chymotrypsin",10 nM
same,Ki,"Human plasmin [19]; Example 8, substrate S2251 0.6 mM",3 nM
[R15L]-TFPI-2 [KFN 1928],Ki,Porcine trypsin; [22],> 1000 nM
same,neutrophil elastase inhibition (in words),[17],strong inhibitors
same,Ki,[17],2.2 nM
same,Ki,[18],> 1000 nM
same,Ki,Bovine chymotrypsin; [23],< 5 nM
same,Ki,Human plasmin [19]; Example 9,> 1000 nM
